Assay results published in patent US20230002732A1.

B1: ZNF198 (protein, UniProt Q9UBW7 1-1377, looked up)
chain: MDTSSVGGLELTDQTPVLLGSTAMATSLTNVGNSFSGPANPLVSRSNKFQNSSVEDDDDVVFIEPVQPPPPSVPVVADQRTITFTSSKNEELQGNDSKITPSSKELASQKGSVSETIVIDDEEDMETNQGQEKNSSNFIERRPPETKNRTNDVDFSTSSFSRSKVNAGMGNSGITTEPDSEIQIANVTTLETGVSSVNDGQLENTDGRDMNLMITHVTSLQNTNLGDVSNGLQSSNFGVNIQTYTPSLTSQTKTGVGPFNPGRMNVAGDVFQNGESATHHNPDSWISQSASFPRNQKQPGVDSLSPVASLPKQIFQPSVQQQPTKPVKVTCANCKKPLQKGQTAYQRKGSAHLFCSTTCLSSFSHKPAPKKLCVMCKKDITTMKGTIVAQVDSSESFQEFCSTSCLSLYEDKQNPTKGALNKSRCTICGKLTEIRHEVSFKNMTHKLCSDHCFNRYRMANGLIMNCCEQCGEYLPSKGAGNNVLVIDGQQKRFCCQSCVSEYKQVGSHPSFLKEVRDHMQDSFLMQPEKYGKLTTCTGCRTQCRFFDMTQCIGPNGYMEPYCSTACMNSHKTKYAKSQSLGIICHFCKRNSLPQYQATMPDGKLYNFCNSSCVAKFQALSMQSSPNGQFVAPSDIQLKCNYCKNSFCSKPEILEWENKVHQFCSKTCSDDYKKLHCIVTYCEYCQEEKTLHETVNFSGVKRPFCSEGCKLLYKQDFARRLGLRCVTCNYCSQLCKKGATKELDGVVRDFCSEDCCKKFQDWYYKAARCDCCKSQGTLKERVQWRGEMKHFCDQHCLLRFYCQQNEPNMTTQKGPENLHYDQGCQTSRTKMTGSAPPPSPTPNKEMKNKAVLCKPLTMTKATYCKPHMQTKSCQTDDTWRTEYVPVPIPVPVYIPVPMHMYSQNIPVPTTVPVPVPVPVFLPAPLDSSEKIPAAIEELKSKVSSDALDTELLTMTDMMSEDEGKTETTNINSVIIETDIIGSDLLKNSDPETQSSMPDVPYEPDLDIEIDFPRAAEELDMENEFLLPPVFGEEYEEQPRPRSKKKGAKRKAVSGYQSHDDSSDNSECSFPFKYTYGVNAWKHWVKTRQLDEDLLVLDELKSSKSVKLKEDLLSHTTAELNYGLAHFVNEIRRPNGENYAPDSIYYLCLGIQEYLCGSNRKDNIFIDPGYQTFEQELNKILRSWQPSILPDGSIFSRVEEDYLWRIKQLGSHSPVALLNTLFYFNTKYFGLKTVEQHLRLSFGTVFRHWKKNPLTMENKACLRYQVSSLCGTDNEDKITTGKRKHEDDEPVFEQIENTANPSRCPVKMFECYLSKSPQNLNQRMDVFYLQPECSSSTDSPVWYTSTSLDRNTLENMLVRVLLVKDIYDKDNYELDEDTD
B2: RNF111 (enzyme, UniProt Q6ZNA4 1-994, looked up)
chain: MSQWTPEYNELYTLKVDMKSEIPSDAPKTQESLKGILLHPEPIGAAKSFPAGVEMINSKVGNEFSHLCDDSQKQEKEMNGNQQEQEKSLVVRKKRKSQQAGPSYVQNCVKENQGILGLRQHLGTPSDEDNDSSFSDCLSSPSSSLHFGDSDTVTSDEDKEVSVRHSQTILNAKSRSHSARSHKWPRTETESVSGLLMKRPCLHGSSLRRLPCRKRFVKNNSSQRTQKQKERILMQRKKREVLARRKYALLPSSSSSSENDLSSESSSSSSTEGEEDLFVSASENHQNNPAVPSGSIDEDVVVIEASSTPQVTANEEINVTSTDSEVEIVTVGESYRSRSTLGHSRSHWSQGSSSHASRPQEPRNRSRISTVIQPLRQNAAEVVDLTVDEDEPTVVPTTSARMESQATSASINNSNPSTSEQASDTASAVTSSQPSTVSETSATLTSNSTTGTSIGDDSRRTTSSAVTETGPPAMPRLPSCCPQHSPCGGSSQNHHALGHPHTSCFQQHGHHFQHHHHHHHTPHPAVPVSPSFSDPACPVERPPQVQAPCGANSSSGTSYHEQQALPVDLSNSGIRSHGSGSFHGASAFDPCCPVSSSRAAIFGHQAAAAAPSQPLSSIDGYGSSMVAQPQPQPPPQPSLSSCRHYMPPPYASLTRPLHHQASACPHSHGNPPPQTQPPPQVDYVIPHPVHAFHSQISSHATSHPVAPPPPTHLASTAAPIPQHLPPTHQPISHHIPATAPPAQRLHPHEVMQRMEVQRRRMMQHPTRAHERPPPHPHRMHPNYGHGHHIHVPQTMSSHPRQAPERSAWELGIEAGVTAATYTPGALHPHLAHYHAPPRLHHLQLGALPLMVPDMAGYPHIRYISSGLDGTSFRGPFRGNFEELIHLEERLGNVNRGASQGTIERCTYPHKYKKVTTDWFSQRKLHCKQDGEEGTEEDTEEKCTICLSILEEGEDVRRLPCMHLFHQVCVDQWLITNKKCPICRVDIEAQLPSES
B3: C18orf25 (protein, UniProt Q96B23 1-404, looked up)
chain: MKMEEAVGKVEELIESEAPPKASEQETAKEEDGSVELESQVQKDGVADSTVISSMPCLLMELRRDSSESQLASTESDKPTTGRVYESDSSNHCMLSPSSSGHLADSDTLSSAEENEPSQAETAVEGDPSGVSGATVGRKSRRSRSESETSTMAAKKNRQSSDKQNGRVAKVKGHRSQKHKERIRLLRQKREAAARKKYNLLQDSSTSDSDLTCDSSTSSSDDDEEVSGSSKTITAEIPDGPPVVAHYDMSDTNSDPEVVNVDNLLAAAVVQEHSNSVGGQDTGATWRTSGLLEELNAEAGHLDPGFLASDKTSAGNAPLNEEINIASSDSEVEIVGVQEHARCVHPRGGVIQSVSSWKHGSGTQYVSTRQTQSWTAVTPQQTWASPAEVVDLTLDEDSRRKYLL
B4: PIAS3 (enzyme, UniProt Q9Y6X2 1-628, looked up)
chain: MAELGELKHMVMSFRVSELQVLLGFAGRNKSGRKHELLAKALHLLKSSCAPSVQMKIKELYRRRFPRKTLGPSDLSLLSLPPGTSPVGSPGPLAPIPPTLLAPGTLLGPKREVDMHPPLPQPVHPDVTMKPLPFYEVYGELIRPTTLASTSSQRFEEAHFTFALTPQQVQQILTSREVLPGAKCDYTIQVQLRFCLCETSCPQEDYFPPNLFVKVNGKLCPLPGYLPPTKNGAEPKRPSRPINITPLARLSATVPNTIVVNWSSEFGRNYSLSVYLVRQLTAGTLLQKLRAKGIRNPDHSRALIKEKLTADPDSEVATTSLRVSLMCPLGKMRLTVPCRALTCAHLQSFDAALYLQMNEKKPTWTCPVCDKKAPYESLIIDGLFMEILSSCSDCDEIQFMEDGSWCPMKPKKEASEVCPPPGYGLDGLQYSPVQGGDPSENKKKVEVIDLTIESSSDEEDLPPTKKHCSVTSAAIPALPGSKGVLTSGHQPSSVLRSPAMGTLGGDFLSSLPLHEYPPAFPLGADIQGLDLFSFLQTESQHYGPSVITSLDEQDALGHFFQYRGTPSHFLGPLAPTLGSSHCSATPAPPPGRVSSIVAPGGALREGHGGPLPSGPSLTGCRSDIISLD
B5: ZMYM5 (protein, UniProt Q9UJ78 1-669, looked up)
chain: MEKCSVGGLELTEQTPALLGNMAMATSLMDIGDSFGHPACPLVSRSRNSPVEDDDDDDDVVFIESIQPPSISAPAIADQRNFIFASSKNEKPQGNYSVIPPSSRDLASQKGNISETIVIDDEEDIETNGGAEKKSSCFIEWGLPGTKNKTNDLDFSTSSLSRSKTKTGVRPFNPGRMNVAGDLFQNGEFATHHSPDSWISQSASFPSNQKQPGVDSLSPVALLRKQNFQPTAQQQLTKPAKITCANCKKPLQKGQTAYQRKGSAHLFCSTTCLSSFSHKRTQNTRSIICKKDASTKKANVILPVESSKSFQEFYSTSCLSPCENNWNLKKGVFNKSRCTICSKLAEIRHEVSVNNVTHKLCSNHCFNKYRLANGLIMNCCEHCGEYMPSKSTGNNILVIGGQQKRFCCQSCINEYKQMMETKSKKLTASENRKRNAFREENEKQLYGSSNTLLKKIEGIPEKKEKTSQLQLSVECGTDTLLIQENVNLPPSSTSTIADTFQEQLEEKNFEDSIVPVVLSADPGTWPRILNIKQRDTLVENVPPQVRNFNFPKDNTGRKFSETYYTRILPNGEKTTRSWLLYSTSKDSVFCLYCKLFGEGKNQLKNENGCKDWQHLSHILSKHEESEMHVNNSVKYSKLKSDLKKNKAIDAAEHRLYENEKNDGVLLLYT
B6: ZBTB16 (protein, UniProt Q05516 1-673, looked up)
chain: MDLTKMGMIQLQNPSHPTGLLCKANQMRLAGTLCDVVIMVDSQEFHAHRTVLACTSKMFEILFHRNSQHYTLDFLSPKTFQQILEYAYTATLQAKAEDLDDLLYAAEILEIEYLEEQCLKMLETIQASDDNDTEATMADGGAEEEEDRKARYLKNIFISKHSSEESGYASVAGQSLPGPMVDQSPSVSTSFGLSAMSPTKAAVDSLMTIGQSLLQGTLQPPAGPEEPTLAGGGRHPGVAEVKTEMMQVDEVPSQDSPGAAESSISGGMGDKVEERGKEGPGTPTRSSVITSARELHYGREESAEQVPPPAEAGQAPTGRPEHPAPPPEKHLGIYSVLPNHKADAVLSMPSSVTSGLHVQPALAVSMDFSTYGGLLPQGFIQRELFSKLGELAVGMKSESRTIGEQCSVCGVELPDNEAVEQHRKLHSGMKTYGCELCGKRFLDSLRLRMHLLAHSAGAKAFVCDQCGAQFSKEDALETHRQTHTGTDMAVFCLLCGKRFQAQSALQQHMEVHAGVRSYICSECNRTFPSHTALKRHLRSHTGDHPYECEFCGSCFRDESTLKSHKRIHTGEKPYECNGCGKKFSLKHQLETHYRVHTGEKPFECKLCHQRSRDYSAMIKHLRTHNGASPYQCTICTEYCPSLSSMQKHMKGHKPEEIPPDWRIEKTYLYLCYV

Each molecule was assayed on E4bp4 (NFIL3), wild type (assay: cell_activity). Settings: 3T3 cells, 48 h; transcriptional repression.

Row | Molecule | activity (% decrease in luciferase)
1 | pGL3-E4bp4-CS reporter with three E4bp4 consensus binding sites | 50

What follows are molecules tested against E4bp4 (assay: yeast-two-hybrid screen, E4bp4 as bait). Settings: not given.

Row | Positive clones | Molecule
2 | 1 clones | CHD1 (from UniProt O14646 1-1710)
3 | 2 clones | DSP (from UniProt P15924 1-2871)
4 | 5 clones | FLJ13057
5 | 1 clones | FLJ544447
6 | 1 clones | FLNA (from UniProt P21333 2-2647)
7 | 1 clones | HIPK1 (from UniProt Q86Z02 1-1210) (enzyme)
8 | 5 clones | HIPK3 (from UniProt Q9H422 1-1215) (enzyme)
9 | 20 clones | PIAS1 (from UniProt O75925 2-651)
10 | 1 clones | RANBP2 (from UniProt P49792 1-3224) (enzyme)
11 | 2 clones | SETX (from UniProt Q7Z333 1-2677) (enzyme)
12 | 2 clones | SNRP70 (from UniProt P08621 2-437)
13 | 1 clones | SORL1 (from UniProt Q92673 82-2214) (receptor)
14 | 2 clones | TLK2 (from UniProt Q86UE8 1-772) (enzyme)
15 | 1 clones | U5-200KD (from UniProt O75643 1-2136) (enzyme)
16 | 5 clones | ZNF237
17 | 5 clones | B1
18 | 1 clones | B2
19 | 1 clones | B3
20 | 2 clones | B4
21 | 5 clones | B5
22 | 1 clones | B6
